These results are taken from patent publication US20220002357A1.

The target of experiment [1] is mu-opioid receptor unfused (MOR). In words: ADSoRB radiotracer adsorption to microsomal membranes, scintillation counting.
Experiment [2] addresses mu-opioid receptor fused to Gαi1-RLuc8 chimera (MOR-Gi1RLuc) (human) (UniProt P63096). The description is as above.
Experiment [3] deals with µ-opioid receptor (MOR) fused to Gαi1 protein (MOR-Gi1) (human) (UniProt P63096). The experiment in a line: ADSoRB radiotracer elution from microsomal membranes with GPPNHP, scintillation counting (FIG. 2B).
µ-opioid receptor (MOR) fused to Gαi1 protein (MOR-Gi1) (human), sequence (P63096 whole entry, the tested form may be a part): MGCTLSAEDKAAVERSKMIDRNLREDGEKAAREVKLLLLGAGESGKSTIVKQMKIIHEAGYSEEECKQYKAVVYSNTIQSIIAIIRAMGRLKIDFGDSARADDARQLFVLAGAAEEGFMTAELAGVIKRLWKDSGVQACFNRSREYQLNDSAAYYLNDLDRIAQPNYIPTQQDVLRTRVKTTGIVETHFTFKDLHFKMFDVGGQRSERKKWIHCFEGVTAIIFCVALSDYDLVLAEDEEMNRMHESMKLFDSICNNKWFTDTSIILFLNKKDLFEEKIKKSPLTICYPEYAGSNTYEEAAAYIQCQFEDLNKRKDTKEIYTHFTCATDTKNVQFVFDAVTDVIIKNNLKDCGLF
Experiment [4] has the same target. The experiment in a line: ADSoRB radiotracer elution from microsomal membranes with buffer control, scintillation counting (FIG. 2B).
Experiment [5] concerns the target mu-opioid receptor unfused (MOR). In words: ADSoRB radiotracer elution from microsomal membranes with GPPNHP, scintillation counting.
Experiment [6] addresses mu-opioid receptor fused to Gαi1-RLuc8 chimera (MOR-Gi1RLuc) (human) (UniProt P63096). The description is as above.
Experiment [7] addresses neurotensin receptor. In words: cell-based or functional assay.

mu-opioid receptor fused to Gαi1-RLuc8 chimera (MOR-Gi1RLuc) (human), sequence (P63096 whole entry, change not shown, the tested form may be a part): as the sequence (P63096 whole entry, the tested form may be a part) above

[3H]DAMGO (peptide): the values for the unbound tracer (%) (% unbound tracer) in experiment [1] and in experiment [2] were 67 and 23, respectively. Also, the elution upon complex dissociation/uncoupling with GPPNHP (% of total agonist added) (% of total agonist added) in experiment [3] came to 30. In experiment [4], this substance showed an elution with buffer control (% of total agonist added) (% of total agonist added) of 2. In addition, the fraction of agonist eluted upon GPPNHP treatment (% of total agonist) (% of total agonist) in experiment [5] amounted to 0.8; in experiment [6] it was 7.
Regarding “neurotensin peptide (8-13) (from UniProt P30990 31-36)”, in experiment [7], the NET BRET response at GαZ, 96-well plate amounted to 0.495; the NET BRET response at GαZ, 384-well plate came out at 0.625; the Neurotensin potency, GαZ-114-Rluc8/Gβ3γ1-GFP2 BRET biosensor, 96-well plate came to 1.85 nM; the Neurotensin potency, GαZ-114-Rluc8/Gβ3γ1-GFP2 BRET biosensor, 384-well plate stood at 1.68 nM.
